Assay results as given in US20150291692A1 (INNATE PHARMA, published 2015).

Columns and labels:
[1] = molecular target: T1, KIR3DL1 expressed on cells (human, UniProt P43629 22-444); experiment: flow cytometry on HEK KIR3DL1 cells (row HEK-KIR3DL1)
T1 construct: also called HEK-293T/KIR3DL1

[2] = molecular target: T2, KIR3DL2 recombinant protein (R&D Systems) (human, UniProt P43630 28-340); experiment: SPR (Biacore T100), antibody injected over immobilised recombinant KIR3DL2, bivalent affinity, pH 7.2
T2 construct: Bought protein; also called rec KIR3DL2; recombinant KIR3DL2-Fc fusion protein; not shown: Fc part of the bought fusion protein; not described
T2 sequence (P43630 28-340 A108T): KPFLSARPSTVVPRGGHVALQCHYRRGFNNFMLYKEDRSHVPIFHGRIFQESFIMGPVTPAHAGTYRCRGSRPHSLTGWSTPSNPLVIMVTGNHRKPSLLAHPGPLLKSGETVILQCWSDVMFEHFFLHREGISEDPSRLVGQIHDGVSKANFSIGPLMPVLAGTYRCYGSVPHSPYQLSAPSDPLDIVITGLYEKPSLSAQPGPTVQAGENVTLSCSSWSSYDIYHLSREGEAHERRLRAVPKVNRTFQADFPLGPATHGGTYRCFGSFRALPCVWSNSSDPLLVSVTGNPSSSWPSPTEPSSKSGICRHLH

[3] = molecular target: T3, KIR3DL2 mutant M7 (L113V;T118R) (human, UniProt P43630 22-455); experiment: flow cytometry on HEK-293T cells transfected with the mutant; + no significant loss of binding, ± decrease
T3 construct: Expressed on transfected HEK-293T cells; also called Number 7
T3 sequence (P43630 22-455 L134V/T139R): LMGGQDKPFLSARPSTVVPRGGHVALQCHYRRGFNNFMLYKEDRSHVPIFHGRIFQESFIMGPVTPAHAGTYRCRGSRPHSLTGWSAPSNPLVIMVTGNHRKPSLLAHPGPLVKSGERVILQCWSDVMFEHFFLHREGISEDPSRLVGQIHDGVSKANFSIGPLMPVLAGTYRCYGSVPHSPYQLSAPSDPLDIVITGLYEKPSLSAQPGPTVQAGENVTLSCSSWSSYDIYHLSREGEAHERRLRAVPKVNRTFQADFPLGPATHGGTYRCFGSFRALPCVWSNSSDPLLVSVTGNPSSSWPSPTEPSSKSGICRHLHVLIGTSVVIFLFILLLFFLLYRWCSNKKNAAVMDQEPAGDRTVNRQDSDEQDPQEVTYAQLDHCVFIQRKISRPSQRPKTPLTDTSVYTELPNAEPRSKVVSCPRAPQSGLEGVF

[4] = molecular target: T4, KIR3DL2 mutant M9 (L164M;P166L;V167A) (human, UniProt P43630 22-455); experiment: as above
T4 construct: Expressed on transfected HEK-293T cells; also called Number 9
T4 sequence (P43630 22-455 L185M/P187L/V188A): as the sequence (P43630 22-455 L134V/T139R) above, with V113L, R118T, L164M, P166L, V167A counted along it

[5] = molecular target: T5, KIR3DL2 mutant M10 (R136K;E141K) (human, UniProt P43630 22-455); experiment: as above
T5 construct: Expressed on transfected HEK-293T cells; also called Number 10
T5 sequence (P43630 22-455 R157K/E162K): as the sequence (P43630 22-455 L134V/T139R) above, with V113L, R118T, R136K, E141K counted along it

[6] = molecular target: T6, KIR3DL2 mutant M11A3 (N99S;H100S;Q184A) (human, UniProt P43630 22-455); experiment: as above
T6 construct: Expressed on transfected HEK-293T cells; also called Number 26 (11A3)
T6 sequence (P43630 22-455 N120S/H121S/Q205A): as the sequence (P43630 22-455 L134V/T139R) above, with N99S, H100S, V113L, R118T, Q184A counted along it

[7] = molecular target: T7, KIR3DL2 mutant M11A5 (V147A;Q149S) (human, UniProt P43630 22-455); experiment: as above
T7 construct: Expressed on transfected HEK-293T cells; also called Number 28 (11A5)
T7 sequence (P43630 22-455 V168A/Q170S): as the sequence (P43630 22-455 L134V/T139R) above, with V113L, R118T, V147A, Q149S counted along it

[8] = molecular target: T8, KIR3DL2 mutant M11A6 (I150A;M128A) (human, UniProt P43630 22-455); experiment: as above
T8 construct: Expressed on transfected HEK-293T cells; also called Number 29 (11A6)
T8 sequence (P43630 22-455 M149A/I171A): as the sequence (P43630 22-455 L134V/T139R) above, with V113L, R118T, M128A, I150A counted along it

[9] = molecular target: T9, KIR3DL2 mutant M11 (P179T;S181T) (human, UniProt P43630 22-455); experiment: flow cytometry on HEK-293T cells transfected with the mutant; - means substantially complete loss of binding
T9 construct: Expressed on transfected HEK-293T cells; also called Number 11; mutant 11
T9 sequence (P43630 22-455 P200T/S202T): as the sequence (P43630 22-455 L134V/T139R) above, with V113L, R118T, P179T, S181T counted along it

[10] = molecular target: T10, KIR3DL2 mutant M11A4 (E130S;H131S;R145S) (human, UniProt P43630 22-455); experiment: as above
T10 construct: Expressed on transfected HEK-293T cells; also called Number 27 (11A4)
T10 sequence (P43630 22-455 E151S/H152S/R166S): as the sequence (P43630 22-455 L134V/T139R) above, with V113L, R118T, E130S, H131S, R145S counted along it

[11] = molecular target: T11, KIR3DL2 mutant M8 + 11 (V127I;P179T;S181T) (human, UniProt P43630 22-455); experiment: as above
T11 construct: Expressed on transfected HEK-293T cells; also called Number 23 (8 + 11)
T11 sequence (P43630 22-455 V148I/P200T/S202T): as the sequence (P43630 22-455 L134V/T139R) above, with V113L, R118T, V127I, P179T, S181T counted along it

[12] = molecular target: T12, KIR3DL2 at the surface of HUT78 Sezary Syndrome cell line (human, UniProt P43630 22-455); experiment: flow cytometry competition on HUT78 cells; naked antibody titrated against 15C11-PE (5 µg/ml)
T12 construct: whole, on cells; Two alleles are expressed
T12 sequence (P43630 22-455): as the sequence (P43630 22-455 L134V/T139R) above, with V113L, R118T counted along it

[13] = molecular target: T13, NK cells, including normal KIR3DL2+ NK cells (Homo sapiens, UniProt P43630); experiment: flow cytometry of whole blood of a Sezary Syndrome patient, antibody + GaM-PE against CD4; lower gate (CD4-negative NK cells)
T13 construct: full-length receptor on the cell surface; also called gate NK GaM PE+; KIR3DL2 on CD4-negative NK cells in the blood of the Sezary Syndrome patient
T13 sequence (P43630 22-455 limits assumed): as the sequence (P43630 22-455 L134V/T139R) above, with V113L, R118T counted along it

[14] = molecular target: T14, KIR3DL2 on fresh Sezary Syndrome cells of patients (human, UniProt P43630 22-455); experiment: flow cytometry of whole blood of a Sezary Syndrome patient, antibody + GaM-PE against CD4; upper gate (CD4+ KIR3DL2+ leukemic Sezary cells)
T14 construct: whole, on cells; also called SS cells
T14 sequence (P43630 22-455): as the sequence (P43630 22-455 L134V/T139R) above, with V113L, R118T counted along it

[15] = molecular target: T2, KIR3DL2 recombinant protein (R&D …); experiment: SCK kinetic method
[16] = molecular target: T2, KIR3DL2 recombinant protein (R&D …); experiment: regular kinetic method

T1 sequence (P43629 22-444 limits assumed): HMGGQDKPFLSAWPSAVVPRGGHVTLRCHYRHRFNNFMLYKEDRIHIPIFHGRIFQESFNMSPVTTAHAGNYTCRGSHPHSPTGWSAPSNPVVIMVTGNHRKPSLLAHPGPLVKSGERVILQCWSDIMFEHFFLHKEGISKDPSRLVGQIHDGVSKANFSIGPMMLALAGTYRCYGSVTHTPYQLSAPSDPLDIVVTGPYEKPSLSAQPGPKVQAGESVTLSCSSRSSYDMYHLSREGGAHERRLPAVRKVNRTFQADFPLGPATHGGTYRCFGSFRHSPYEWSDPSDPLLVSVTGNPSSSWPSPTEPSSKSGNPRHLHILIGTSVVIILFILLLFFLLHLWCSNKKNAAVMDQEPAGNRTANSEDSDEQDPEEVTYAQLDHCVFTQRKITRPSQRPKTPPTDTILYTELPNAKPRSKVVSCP

Row | Binder | Kd [15] [nM] | koff [15] [s⁻¹] | Kd [16] [nM] | koff [16] [s⁻¹] | other results
1 | antibody 19H12 (antibody, mouse IgG2b, V domains shown, also called mo19H12) VH: QIQLVQSGPELKKPGETVKISCKASGYTFTNFGMNWVKQAPGKGLKWMGWINTYTGEPTYADDFKGRFAFSLETSASTAYLQINNLKNEDMATYFCARNGNFGYYFDYWGQGTTLTVSS VL: DVLMTQTPLSLPVSLGDQASFSCRSSQNIVHSNGNTYLEWYLQKPGQSPSLLIYKVSNRFSGVPDRFSGSGSGTDFTLKITRVEAEDLGVYYCFQGSHVPFTFGSGTKLEIK | – | – | – | – | binding result [1]: no binding; Kd [2]: 0.49 nM; binding result [3]: binds; binding result [4]: binds; binding result [5]: binds; binding result [6]: binds; binding result [7]: binds; binding result [8]: binds; binding result [9]: no binding; binding result [10]: no binding; binding result [11]: no binding; IC50 (read off the curve) [12]: ~0.4 mg/L; % of cells in gate NK GaM PE+ [13]: 14.9%; % of cells in gate CD4 GaM PE+ [14]: 7.5%
2 | antibody 22B2 (antibody, mouse IgG1, V domains shown) VH: QIQLVQSGPELKKPGETVKISCKASGYTFTNYGMNWVKQAPGKGLKWMGWINTYTGEPTYADDFKGRFAFSLETSATTAYLQINNLKNEDMATYFCSRSFGSTYGDYWGQGTTLTVSS VL: DVLMTQTPLSLPVSLGDQASISCRSSQTIVHSNGNTYLEWYLQKPGQSPKLLIYKVSNRFSGVPDRFSGSGSGTDFTLKISRVEAEDLGVYYCFQGSHVPWTFGGGTKLEIK | – | – | – | – | binding result [1]: no binding; Kd [2]: 2.2 nM; % of cells in gate NK GaM PE+ [13]: 11.6%; % of cells in gate CD4 GaM PE+ [14]: 7.7%
3 | Hum23-K32-15C11 (antibody, V domains shown, also called H2/L3) VH: EVQLVESGGGLVQPGGSLRLSCAASGFTFSDAWMDWVRQAPGKGLEWVGEIRSKANNHATYYAASVKGRFTISRDDSKNSLYLQMNSLKTEDTAVYYCTGGYYPVYWGQGTLVTVSS VL: DIQMTQSPSSLSASVGDRVTITCKASQDINKNIAWYQHKPGKAPKLLIHYTSTLQPGVPSRFSGSGSGRDYTFTISSLQPEDIATYYCLQYDNLLTFGGGTKVEIK | 0.5 | 0.00014 | 1.24 | 0.000329 | –
4 | Hum13-K32-15C11 (antibody, V domains shown, also called H1/L3) VH: EVQLVESGGGLVQPGGSLRLSCAASGFTFSDAWMDWVRQAPGKGLEWVGRIRSKANNHATAYAASVKGRFTISRDDSKNSLYLQMNSLKTEDTAVYYCTGGYYPVYWGQGTLVTVSS VL: DIQMTQSPSSLSASVGDRVTITCKASQDINKNIAWYQHKPGKAPKLLIHYTSTLQPGVPSRFSGSGSGRDYTFTISSLQPEDIATYYCLQYDNLLTFGGGTKVEIK | 1.13 | 0.000286 | 4.59 | 0.00105 | –
5 | Hum33-K32-15C11 (antibody, V domains shown, also called H3/L3; H3-L3) VH: EVQLVESGGGLVQPGGSLRLSCAASGFTFSDAWMDWVRQAPGKGLEWVAEIRSKANNHATYYAASVKGRFTISRDDSKNSVYLQMNSLKTEDTAVYYCTGGYYPVYWGQGTLVTVSS VL: DIQMTQSPSSLSASVGDRVTITCKASQDINKNIAWYQHKPGKAPKLLIHYTSTLQPGVPSRFSGSGSGRDYTFTISSLQPEDIATYYCLQYDNLLTFGGGTKVEIK | 0.33 | 7.8e-05 | 0.78 | 0.00018 | –
6 | Hum22-K32-15C11 (antibody, V domains shown, also called H2/L2) VH: EVQLVESGGGLVQPGGSLRLSCAASGFTFSDAWMDWVRQAPGKGLEWVGEIRSKANNHATYYAASVKGRFTISRDDSKNSLYLQMNSLKTEDTAVYYCTGGYYPVYWGQGTLVTVSS VL: DIQMTQSPSSLSASVGDRVTITCKASQDINKNIAWYQHKPGKAPKLLIHYTSTLQPGVPSRFSGSGSGTDFTFTISSLQPEDIATYYCLQYDNLLTFGGGTKVEIK | 0.65 | 0.000156 | 1.74 | 0.000385 | –

Further binders by falling Kd [15], results first:

Row | Kd [15] [nM] | koff [15] [s⁻¹] | Kd [16] [nM] | koff [16] [s⁻¹] | Binder | other results
7 | 1.63 | 0.000109 | 5.61 | 0.00132 | Hum12-K32-15C11 (antibody, V domains shown, also called H1/L2; H1-L2) VH: EVQLVESGGGLVQPGGSLRLSCAASGFTFSDAWMDWVRQAPGKGLEWVGRIRSKANNHATAYAASVKGRFTISRDDSKNSLYLQMNSLKTEDTAVYYCTGGYYPVYWGQGTLVTVSS VL: DIQMTQSPSSLSASVGDRVTITCKASQDINKNIAWYQHKPGKAPKLLIHYTSTLQPGVPSRFSGSGSGTDFTFTISSLQPEDIATYYCLQYDNLLTFGGGTKVEIK | –
8 | 0.51 | 0.000104 | 1.29 | 0.00025 | Hum32-K32-15C11 (antibody, V domains shown, also called H3/L2) VH: EVQLVESGGGLVQPGGSLRLSCAASGFTFSDAWMDWVRQAPGKGLEWVAEIRSKANNHATYYAASVKGRFTISRDDSKNSVYLQMNSLKTEDTAVYYCTGGYYPVYWGQGTLVTVSS VL: DIQMTQSPSSLSASVGDRVTITCKASQDINKNIAWYQHKPGKAPKLLIHYTSTLQPGVPSRFSGSGSGTDFTFTISSLQPEDIATYYCLQYDNLLTFGGGTKVEIK | –
9 | 0.22 | 0.000108 | 0.68 | 0.00029 | chimeric 15C11 of human IgG1 Fc isotype (antibody, V domains shown, Human-mouse chimeric antibody with the variable regions of murine 15C11; also called chim15C11; Chim15C11) VH: EVKLEESGGGLVQPGGSMKLSCAASGFTFSDAWMDWVRQSPEKGLEWVAEIRSKANNHATYYAESVKGRFTISRDDSKSSVYLRMNSLRAEDTGIYYCTGGYYPVYWGQGTLVTVSA VL: DIQMTQSPSSLSASLGGKVTITCKASQDINKNIAWYQHKPGKGPRLLIHYTSTLQPGFPSRFSGSGSGRDYSFSISNLEPEDLATYYCLQYDNLLTFGGGTKLEIK | –
